From US20240279288A1, “APPLICATION OF PLANT JAZ PROTEINS AND DERIVED POLYPEPTIDES IN PREVENTION AND TREATMENT OF HUMAN AND ANIMAL TUMORS” (ANYANG INSTITUTE OF SINO-COTTON INDUSTRY INNOVATION, priority 2021, published 2024)

How the values were obtained:
GhMYC2 = assay: Luciferase experiment in tobacco leaves with GhMYC2; type: binding, cotton; conditions: no fluorescence on the control
Description: (§1) Method of the luciferase experiment: GhJAZ1 (corresponding encoding gene sequence set forth in SEQ ID No. 39) was subcloned into pCAMBIA-CLuc vector (Chen, H., et al. “Firefly Luciferase Complementation Imaging Assay for Protein-Protein Interactions in Plants.” Plant Physiology 146.2(2008):368-376.) between KpnI and SalI cleavage sites, and the transcription factors such as GhMYC2 (corresponding encoding gene sequence set forth in SEQ ID No. 72), GhNINJA (corresponding encoding gene sequence set forth in SEQ ID No. 74), and GhCOI1 (corresponding encoding gene sequence set forth in SEQ ID No. 80) were subcloned into pCAMBIA-NLuc (Chen, H., et al. “Firefly Luciferase Complementation Imaging Assay for Protein-Protein Interactions in Plants.” Plant Physiology 146.2(2008):368-376.) between KpnI and SalI cleavage sites, respectively. […] Luciferase substrates were applied at the infected leaves before taking images and placed in a dark room for at least 6 min to quench fluorescence, followed by observation on the Nightowl-II LB983 instrument, using IndigoBasic software under the luciferase-5 min setting conditions.

c-Myc-215aa = target: T1, c-Myc-215aa (Homo sapiens, UniProt P01106); assay: Yeast two hybrid and LUC with c-Myc truncated to first 215 amino acids; type: binding
T1 construct: expressed in transfected cells
Description: […]

GhCOI1 = assay: Luciferase experiment in tobacco leaves with GhCOI1; type: binding, cotton; conditions: no fluorescence on the control
Description: as §1

GhMYC2, sequence (as listed by the source): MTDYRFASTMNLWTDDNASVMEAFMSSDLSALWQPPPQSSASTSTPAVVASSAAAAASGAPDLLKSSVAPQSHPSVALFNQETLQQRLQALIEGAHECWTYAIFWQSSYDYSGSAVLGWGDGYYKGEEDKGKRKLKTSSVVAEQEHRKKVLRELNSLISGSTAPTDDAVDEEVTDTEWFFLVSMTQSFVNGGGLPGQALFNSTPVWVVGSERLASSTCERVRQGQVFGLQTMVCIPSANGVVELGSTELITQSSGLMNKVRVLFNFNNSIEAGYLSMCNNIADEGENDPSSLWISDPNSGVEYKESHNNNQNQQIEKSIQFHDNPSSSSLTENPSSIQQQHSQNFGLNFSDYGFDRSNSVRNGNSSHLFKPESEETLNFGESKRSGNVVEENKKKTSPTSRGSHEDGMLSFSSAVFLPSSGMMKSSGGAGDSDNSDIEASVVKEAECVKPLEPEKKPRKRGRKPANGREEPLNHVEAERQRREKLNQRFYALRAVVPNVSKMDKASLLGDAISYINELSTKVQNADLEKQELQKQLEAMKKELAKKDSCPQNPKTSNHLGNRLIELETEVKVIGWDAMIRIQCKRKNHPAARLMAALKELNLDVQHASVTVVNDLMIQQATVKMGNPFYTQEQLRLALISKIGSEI
T1 sequence (P01106 1-215): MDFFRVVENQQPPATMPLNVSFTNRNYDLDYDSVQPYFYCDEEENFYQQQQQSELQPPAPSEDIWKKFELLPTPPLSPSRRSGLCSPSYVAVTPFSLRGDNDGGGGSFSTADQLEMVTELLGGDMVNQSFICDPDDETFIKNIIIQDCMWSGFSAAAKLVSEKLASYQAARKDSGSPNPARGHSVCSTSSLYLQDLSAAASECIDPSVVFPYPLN
GhCOI1, sequence (as listed by the source): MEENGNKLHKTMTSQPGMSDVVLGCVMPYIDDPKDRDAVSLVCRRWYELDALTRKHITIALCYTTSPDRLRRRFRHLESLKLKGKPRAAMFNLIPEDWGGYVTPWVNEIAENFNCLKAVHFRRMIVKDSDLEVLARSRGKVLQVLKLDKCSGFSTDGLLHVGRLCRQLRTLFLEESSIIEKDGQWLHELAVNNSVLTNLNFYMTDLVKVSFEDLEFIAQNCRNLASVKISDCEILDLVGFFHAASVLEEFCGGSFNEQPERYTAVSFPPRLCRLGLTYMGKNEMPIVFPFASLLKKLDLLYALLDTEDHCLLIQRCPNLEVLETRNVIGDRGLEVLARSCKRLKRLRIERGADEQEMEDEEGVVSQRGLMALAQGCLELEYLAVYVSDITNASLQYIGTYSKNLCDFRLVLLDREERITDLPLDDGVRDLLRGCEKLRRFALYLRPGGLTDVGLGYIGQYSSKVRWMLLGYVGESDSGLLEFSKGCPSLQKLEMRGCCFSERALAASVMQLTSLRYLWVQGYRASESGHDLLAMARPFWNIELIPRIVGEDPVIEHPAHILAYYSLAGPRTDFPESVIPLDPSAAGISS

B1: GhJAZ1: cotton JAZ1 protein, gene number Gh_A05G0260, sequence SEQ ID No. 4; prokaryotically expressed with His tag, about 30 KD (protein)
chain: MSSCSESTAMKPARSPEKPSFAQTCNLLSQYLKEKGSFGDLSLGMTCNVEANGTPVVPPPTMNLFPLNDKSDDVCGRNGGNPKNLTSMDLFPQQAGLASKDDSPNKLEPQTAPMTIFYGGQVIVFNDFPANKAKEIMLLASNSSSQSNNSFNPIPFTSSIARSPIESSIGVPPTSKPVHPAQRAVPGDLPIARRASLHRFLEKRKDRITAKAPYQINNSAAAPSLSGDNKSWLGLAAQSP
modifications: His tag
notes: prokaryotically expressed with His tag, about 30 KD
fluorescence with GhMYC2 after applying luciferase substrate (GhMYC2): stronger fluorescence | interaction with first 215 amino acids truncated c-Myc (c-Myc-215aa): strong interactions | fluorescence with GhCOI1 after applying luciferase substrate (GhCOI1): weaker fluorescence
